Measured values taken from publication PMC2752461, “Involvement of S-adenosylmethionine-dependent halide/thiol methyltransferase (HTMT) in methyl halide emissions from agricultural plants: isolation and characterization of an HTMT-coding gene from Raphanus sativus (daikon radish)” (BMC Plant Biology, 2009).

Key:
[1] = substrate: I; assay: GC-MS headspace assay of methylated product; assay type: biochemical, Raphanus sativus; conditions: 500 μM SAM constant, 20 mM MES pH 7.0, 30 °C
Source text: (§1) GC-MS headspace assay of methylated product on recombinant RsHTMT

[2] = substrate: S; assay: GC-MS headspace assay of methylated product; assay type: biochemical, Raphanus sativus; conditions: 500 μM SAM constant, supplied as NaSH, 20 mM MES pH 7.0, 30 °C
Source text: as §1

purified protein = substrate: C[S+](CC[C@H](N)C(=O)O)C[C@H]1O[C@@H](n2cnc3c(N)ncnc32)[C@H](O)[C@@H]1O; assay: purified protein; conditions: 20 mM iodide constant, 20 mM MES pH 7.0, 30 °C
[3] = substrate: N#CS; assay: GC-FID of CH3SCN formation; assay type: biochemical, Raphanus sativus; conditions: 500 μM SAM constant, KSCN, 20 mM MES pH 7.0, 30 °C
Source text: GC-FID of CH3SCN formation on recombinant RsHTMT

B1: recombinant RsHTMT (Raphanus sativus) (protein)
chain: MAEGQQNSGNSNGENIIPPEDVAKFLPKTVEEGGWEKCWEDGVTPWDQGRATPLVVHLVESSSLPLGRALVPGCGGGHDVVAMASPERYVVGLDISESALEKAAETYASSPKAKYFTFVKEDFFTWRPSELFDLIFDYVVFCAIEPEMRAAWAKTMYELLKPDGELITLMYPITDHDGGPPYKVAVSTYEDVLVPVGFKAVSIEENPYSIATRKGKEKLGRWKKIN
notes: sense primer encodes MAEGQQ), His-tagged fusion in pET-21b, E. coli BL21(DE3), Ni-Sepharose, tag kept
B1 gave a Km [1] of 4470 µM, a Vmax [1] of 0.139 µmol/min/mg and a Km [2] of 12240 µM. It also gave a Vmax [2] of 0.159 µmol/min/mg, a Km (purified protein) of 190 µM and a Km [3] of 40 µM. It also gave a Vmax [3] of 0.185 µmol/min/mg.
